Measurements published in paper PMC9178029, “The structure of EXTL3 helps to explain the different roles of bi-domain exostosins in heparan sulfate synthesis” (Nature Communications, 2022).

Target: the molecule itself
Assay: cryo-EM structure; single-particle cryo-EM of purified EXTL3ΔN at 0.1-0.4 mg/ml, C2 symmetry; apo (2.4 Å) and with 10 mM UDP and 2.5 mM MnCl2 (2.9 Å); buffer 50 mM Tris-HCl pH 6.8, 100 mM NaCl, 50 mM KCl

B1: EXTL3ΔN, soluble form of human exostosin-like 3 (EXTL3) lacking the first 51 amino acids (enzyme, UniProt O43909 52-919, looked up)
chain: TTLDEADEAGKRIFGPRVGNELCEVKHVLDLCRIRESVSEELLQLEAKRQELNSEIAKLNLKIEACKKSIENAKQDLLQLKNVISQTEHSYKELMAQNQPKLSLPIRLLPEKDDAGLPPPKATRGCRLHNCFDYSRCPLTSGFPVYVYDSDQFVFGSYLDPLVKQAFQATARANVYVTENADIACLYVILVGEMQEPVVLRPAELEKQLYSLPHWRTDGHNHVIINLSRKSDTQNLLYNVSTGRAMVAQSTFYTVQYRPGFDLVVSPLVHAMSEPNFMEIPPQVPVKRKYLFTFQGEKIESLRSSLQEARSFEEEMEGDPPADYDDRIIATLKAVQDSKLDQVLVEFTCKNQPKPSLPTEWALCGEREDRLELLKLSTFALIITPGDPRLVISSGCATRLFEALEVGAVPVVLGEQVQLPYQDMLQWNEAALVVPKPRVTEVHFLLRSLSDSDLLAMRRQGRFLWETYFSTADSIFNTVLAMIRTRIQIPAAPIREEAAAEIPHRSGKAAGTDPNMADNGDLDLGPVETEPPYASPRYLRNFTLTVTDFYRSWNCAPGPFHLFPHTPFDPVLPSEAKFLGSGTGFRPIGGGAGGSGKEFQAALGGNVPREQFTVVMLTYEREEVLMNSLERLNGLPYLNKVVVVWNSPKLPSEDLLWPDIGVPIMVVRTEKNSLNNRFLPWNEIETEAILSIDDDAHLRHDEIMFGFRVWREARDRIVGFPGRYHAWDIPHQSWLYNSNYSCELSMVLTGAAFFHKYYAYLYSYVMPQAIRDMVDEYINCEDIAMNFLVSHITRKPPIKVTSRWTFRCPGCPQALSHDDSHFHERHKCINFFVKVYGYMPLLYTQFRVDSVLFKTRLPHDKTKCFKFI
modifications: partial N-glycans modelled at Asn592 and Asn790; intermolecular disulfide bridges between Cys793 and Cys915
notes: human exostosin-like 3 (EXTL3), amino acids 52-919; holds the predicted coiled coil, the GT47 domain, the inter-domain linker and the GT64 domain; lacks the transmembrane helix; Only the 170 kDa globular part (GT47, linker, GT64) is seen in the map; the coiled coil is not visible; also called EXTL3∆N; secretory EXTL3∆N
- stoichiometry N: 2
